Data from paper PMC3920732.
Values joined by “and” are separate entries in the source; they are usually repeats but may differ in a detail not shown here. Equal values may be shown once.

Biological target: α7/5HT3A chimaeric receptor (control, non-mutant)
Experiment: radioligand binding

In the case of “125I-labelled α-bungarotoxin (from UniProt P60615 22-95) (natural protein)”, the Kd is reported as 11.5 nM and 12.2 nM and 8.1 nM.
